Laboratory results: PMC12514197, “LARGE1 processively polymerizes length-controlled matriglycan on prodystroglycan” (Nature Communications, 2025)

Legend:
[1] = target: T1, prodystroglycan (DAG1_(28-340)) (Homo sapiens, UniProt Q14118 28-340, R311A | R312A); experiment: MST
T1 sequence: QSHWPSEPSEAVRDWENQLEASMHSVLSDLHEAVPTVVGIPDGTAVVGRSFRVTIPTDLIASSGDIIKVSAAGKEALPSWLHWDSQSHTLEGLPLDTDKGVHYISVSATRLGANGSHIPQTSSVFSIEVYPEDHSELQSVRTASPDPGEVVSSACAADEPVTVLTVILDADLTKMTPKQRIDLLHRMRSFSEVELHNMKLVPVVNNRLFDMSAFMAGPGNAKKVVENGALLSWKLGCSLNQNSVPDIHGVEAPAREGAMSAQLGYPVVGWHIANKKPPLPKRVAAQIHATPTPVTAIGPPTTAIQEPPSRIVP

[2] = target: the molecule itself; experiment: SEC-MALS; Superdex 200 Increase 10/300 GL, 20 mM HEPES pH 7.4, 150 mM NaCl, samples 4-8 mg/mL, on line with SAXS

B1: LARGE1dTM (enzyme)
chain: FEDGKPVSLSPLESQAHSPRYTASSQRERESLEVRMREVEEENRALRRQLSLAQGRAPSHRRGNHSKTYSMEEGTGDSENLRAGIVAGNSSECGQQPVVEKCETIHVAIVCAGYNASRDVVTLVKSVLFHRRNPLHFHLIADSIAEQILATLFQTWMVPAVRVDFYNADELKSEVSWIPNKHYSGIYGLMKLVLTKTLPANLERVIVLDTDITFATDIAELWAVFHKFKGQQVLGLVENQSDWYLGNLWKNHRPWPALGRGYNTGVILLLLDKLRKMKWEQMWRLTAERELMGMLSTSLADQDIFNAVIKQNPFLVYQLPCFWNVQLSDHTRSEQCYRDVSDLKVIHWNSPKKLRVKNKHVEFFRNLYLTFLEYDGNLLRRELFGCPSEADVNSENLQKQLSELDEDDLCYEFRRERFTVHRTHLYFLHYEYEPAADSTDVTLVAQLSMDRLQMLEAICKHWEGPISLALYLSDAEAQQFLRYAQGSEVLMSRHNVGYHIVYKEGQFYPVNLLRNVAMKHISTPYMFLSDIDFLPMYGLYEYLRKSVIQLDLANTKKAMIVPAFETLRYRLSFPKSKAELLSMLDMGTLFTFRYHVWTKGHAPTNFAKWRTATTPYRVEWEADFEPYVVVRRDCPEYDRRFVGFGWNKVAHIMELDVQEYEFIVLPNAYMIHMPHAPSFDITKFRSNKQYRICLKTLKEEFQQDMSRRYGFAALKYLTAENNS
modifications: N-glycans; NHS-red label in the microscale thermophoresis experiments
notes: LARGE1 lacking the transmembrane domain; soluble secreted construct; Homodimer by cryo-EM and SEC-MALS; also called Like-acetylglucosaminyltransferase-1; apo-LARGE1dTM; source: HEK293-F, stably transfected, secreted, purified (TALON resin)
For B1, the Kd [1] was about 180 nM and the “stoichiometry N” value [2] was 2.
